From publication PMC4121272, “Two β-Galactosidases from the Human Isolate Bifidobacterium breve DSM 20213: Molecular Cloning and Expression, Biochemical Characterization and Synthesis of Galacto-Oligosaccharides” (PLoS ONE, 2014)

Substrate: O=[N+]([O-])c1ccccc1O[C@@H]1O[C@H](CO)[C@H](O)[C@H](O)[C@H]1O
Experiment: purified protein
Assay type: biochemical, Bifidobacterium breve
Settings: 50 mM sodium phosphate pH 6.5, 30°C

Row | Protein | Km [µM] | Vmax [µmol/min/mg] | kcat [s⁻¹] | kcat/Km [M⁻¹ s⁻¹]
1 | β-gal II (Bifidobacterium breve DSM 20213 = JCM 1192) (protein, full length, C-terminal His6 tag kept (pET-21a), E. coli T7 Express with GroEL/GroES, IMAC; calculated 116,594 Da; homodimer 211 kDa; GH2; N-terminus from primer MNTTDDQ, C-terminus before tag DVNLELI) MNTTDDQLKNGDPIVSPSMPTTAWLTDPRVYAVHRLDAHSDHACWSHAPVNGEGSDLGQSLDGEWRVRVETAPTGRFPDGTSDVSPLFAASDFDDSSFSRVQVPSHLETAGLLAPQYVNVQYPWDGHEDPEAPAIPEHGHVAVYRREFDADGEVAQAVREGHPVTLTFQGAATAIYVWLNGSFVGYAEDSFTPSEFDVTDAIKMEGNVLAVACYEYSSASWLEDQDFWRLHGLFRSVELNARPSAHVADIHADTDWDPATSRGSLSLDILVDGTPNAATADLVLRDKNGTTVWHTSTEATGTLHAEAEIDGASPWSAERPDLYTLSIALLDADGRILEIARTRIGFRRVSIEDGILKLNGKRLVFRGVNRHEFDCRRGRAITEEDMLWDIRFMKRHNINAVRTSHYPNQSRWYELCDEYGIYLIDETNLETHGSWNSPGDIPVGTSVPGDDEAWLGACIDRLDSMIMRDRNHPSVLIWSLGNESYAGEVLKAMSAHAHRLDPGRPVHYEGVNWNHAYDEISDFESRMYAKPAEIRDWLEHGDERGEASKPFVSCEYMHAMGNSCGGLSEFIDLERYERYSGGFIWDYIDQGLVQRLPDGCERLSVGGDWGDRPTDYEFVGNGIVFADRTPSPKAQEVKQLYSPVKLTPDGHGVTIENRNLFASTDGYVFAARLLEDGREIWHADYRFDVAAGDTQHHDIAFPDIDSDEGTREVTYEVDLLLAEATAWAPAGYELAFGQLTDTLNPEGDITGNNQDDGRATVTLSRWNAGIRRDDEEILMSRTQGGIVSWKRNGREMVIRRPEIVTFRPLTDNDRGNRSGYDRAAWFAAGRYAVVTDTSITQSDDGGLTAAYRYELADPDHTPVSVTYRVTPGMRMQLTVEYPGNAAGAASLPAFGIEWELPGEYQHLRYYGTGPEETYRDRKQGGKLGIWDTTSEASTAPYLMVQETGSHEDVRWLEATDIQGHGLRVTQRGDRHFTASLLPWNTYTIEAARRHEDLPAPRHNYLRLLAAQMGVGGDDSWGAPVHTAYQLPADRPLTLDVNLELI | 670 ± 70 | 188 | 364 ± 6 | 543000 ± 65000
2 | β-gal I (Bifidobacterium breve DSM 20213 = JCM 1192) (protein, full length, C-terminal His6 tag kept (pET-21a), E. coli T7 Express with GroEL/GroES, IMAC; calculated 116,127 Da; homodimer 220 kDa; GH2; N-terminus from primer MQGKAKT, C-terminus before tag DVTLELI) MQGKAKTIMTNLQSAQQFSQAWLTDPRVFAVNRLAAHSSHKFYDHAPQCGEAMDLKQSLDGQWRVQMVDLADLADNELAEAAFAQPGYDAAGFSPIEVPSALETKGFLNHQYVNQQYPWSGHESPVAPDVPKHNHVALYRHEFSLEPKAAAVLEANKTAADDTAKRRVTLTFQGAATAIAVWLNGAFIGYAEDSFTPSEFDVTDVLRDGVNTLAVACFEFSSASWLEDQDFWRLHGIFRSVELEAQPLVHVNDLRVLADYDHTTGEGSLDVVALVRNAGTAAAVAATVLDAAGNTVWHSKLTAGADAETLTVKANVGKVNPWSAEEPTLYTLQVVATDAAGQVIEAALQRIGFRHFAIEDGLMKLNGKRIVFKGVDRHEFDARTGRTIAEADMIEDIHSFKRLNINAVRTSHYPNETRWYELCDEYGIYVLDETNLETHGSWTDPGDVFQPARAIPGSKDEWRAACVDRTASMVRRDYNHPSVVIWSLGNEAFGGDVFYSMRDFVHENDPFRPVHYEGTFNDPEFSAATDIMSRMYAKPDEIVKLYLGEDGKKPYISCEYSHSMGNSTGGLHLYTELERYPLYQGGFIWDYVDQALWQDCGDGTERLAYGGDFEDRPNDYEFSGDGVMFADRTPSPKAQEVKQLYANVKLVPDESGVTITNDNLFVSTASSLFTARVLVDGVERWHANYRFDVPAGETVREPIAFPKVTDLVALSGSAEVTYEVDQRLAEATDWAPAGYELTFGQYVAAVSFDDGAADAVVAGDAEVAADGFNAGIHTDFGEVLLSKTQGGMVSFKRDGREMVIRRPNLTTFRALTDNDRGNGSGFERAQWMAAGRYARVTDTSVEETADGKGLKATYSYELADAKHTPVTVHYEVDAALRVHLTVEYPGEADAATLPAFGLEWILPKQYDRLRFYGLGPEETYADRLHGAKLGVFSRTAAEDCAPYLLPQETGNHEQVRWAEITDEYGHGMRVTAAGGTRFATSLLPYSSLMLEDALHQNELPKPRHTFLRLLAAQMGVGGDDTWGAPVHDEFQVPADQPLKLDVTLELI | 1300 ± 100 | 486 | 939 ± 7 | 722000 ± 66000
